Reference: patent US10004792B2, “Peptides and combination of peptides for use in immunotherapy against various cancers” (immatics biotechnologies GmbH, priority 2015, dated 2018)

Columns and labels:
HLA-A*02 = HLA-A*02 (Homo sapiens, UniProt P04439, D140Y/D185E/D98H/E176V/E277Q/G131W/G231S/I119V/I121R/I166T/I218V/L300P/N151K/N90K/P208A/P217A/Q86G/Q94H/R138H/R169H); experiment: MHC binding assay (UV-ligand exchange, beta2m ELISA), HLA-A*02; settings: peptide exchange yield, binding to HLA-A*02, UV-ligand exchange, β2m ELISA
Source text: (§1) Candidate peptides for T cell based therapies according to the present invention were further tested for their MHC binding capacity (affinity). The individual peptide-MHC complexes were produced by UV-ligand exchange, where a UV-sensitive peptide is cleaved upon UV-irradiation, and exchanged with the peptide of interest as analyzed. Only peptide candidates that can effectively bind and stabilize the peptide-receptive MHC molecules prevent dissociation of the MHC complexes. To determine the yield of the exchange reaction, an ELISA was performed based on the detection of the light chain (β2m) of stabilized MHC complexes. The assay was performed as generally described in Rodenko et al. (Rodenko et al., 2006).
(§2) 96 well MAXISorp plates (NUNC) were coated over night with 2 ug/ml streptavidin in PBS at room temperature, washed 4× and blocked for 1 h at 37° C. in 2% BSA containing blocking buffer. Refolded HLA-A*02:01/MLA-001 monomers served as standards, covering the range of 15-500 ng/ml. Peptide-MHC monomers of the UV-exchange reaction were diluted 100 fold in blocking buffer. Samples were incubated for 1h at 37° C., washed four times, incubated with 2 ug/ml HRP conjugated anti-62m for 1 h at 37° C., washed again and detected with TMB solution that is stopped with […]. Absorption was measured at 450 nm. Candidate peptides that show a high exchange yield (preferably higher than 50%, most preferred higher than 75%) are generally preferred for a generation and production of antibodies or fragments thereof, and/or T cell receptors or fragments thereof, as they show sufficient avidity to the MHC molecules and prevent dissociation of the MHC complexes.

CD8+ T cells = experiment: In vitro immunogenicity: T-cell priming with aAPCs loaded with peptide/MHC and anti-CD28, multimer staining; type: cell-based, human; settings: for Wells positive [%]: in vitro immunogenicity of HLA class I peptides, peptide-specific multimer staining after aAPC priming of CD8+ T cells; for Wells (in vitro immunogenicity): healthy donor CD8+ T cells, three stimulation cycles, multimer readout
Source text: In order to obtain information regarding the immunogenicity of the TUMAPs of the present invention, the inventors performed investigations using an in vitro T-cell priming assay based on repeated stimulations of CD8+ T cells with artificial antigen presenting cells (aAPCs) loaded with peptide/MHC complexes and anti-CD28 antibody.
In order to perform in vitro stimulations by artificial antigen presenting cells loaded with peptide-MHC complex (pMHC) and anti-CD28 antibody, the inventors first isolated CD8+ T cells from fresh HLA-A*02 leukapheresis products via positive selection using CD8 microbeads (Miltenyi Biotec, Bergisch-Gladbach, Germany) of healthy donors obtained from the University clinics Mannheim, Germany, after informed consent.
PBMCs and isolated CD8+ lymphocytes were incubated in T-cell medium (TCM) until use consisting of RPMI-Glutamax (Invitrogen, Karlsruhe, Germany) supplemented with 10% heat inactivated human AB serum (PAN-Biotech, Aidenbach, Germany), 100 U/ml Penicillin/100 μg/ml Streptomycin (Cambrex, Cologne, Germany), 1 mM sodium pyruvate (CC Pro, Oberdorla, Germany), 20 µg/ml Gentamycin (Cambrex). 2.5 ng/ml IL7 (PromoCell, Heidelberg, Germany) and 10 U/ml IL-2 (Novartis Pharma, Nurnberg, Germany) were also added to the TCM at this step.
Generation of pMHC/anti-CD28 coated beads, T-cell stimulations and readout was performed in a highly defined in vitro system using four different pMHC molecules per stimulation condition and 8 different pMHC molecules per readout condition.
The purified co-stimulatory mouse IgG2a anti human CD28 Ab 9.3 (Jung et al., 1987) was chemically biotinylated using Sulfo-N-hydroxysuccinimidobiotin as recommended by the manufacturer (Perbio, Bonn, Germany). Beads used were 5.6 μm diameter streptavidin coated polystyrene particles (Bangs Laboratories, Illinois, USA).
pMHC used for positive and negative control stimulations were A*0201/MLA-001 (peptide […] (SEQ ID NO. 303) from modified Melan-A/MART-1) and A*0201/DDX5-001 ([…] from DDX5, SEQ ID NO. 304), respectively.
800.000 beads/200 μl were coated in 96-well plates in the presence of 4×12.5 ng different biotin-pMHC, washed and 600 ng biotin anti-CD28 were added subsequently in a volume of 200 μl. Stimulations were initiated in 96-well plates by co-incubating 1×10^6 CD8+ T cells with 2×10^5 washed coated beads in 200 μI TCM supplemented with 5 ng/ml IL-12 (PromoCell) for 3 days at 37° C. Half of the medium was then exchanged by fresh TCM supplemented with 80 U/ml IL-2 and incubating was continued for 4 days at 37° C. This stimulation cycle was performed for a total of three times. For the pMHC multimer readout using 8 different pMHC molecules per condition, a two-dimensional combinatorial coding approach was used as previously described (Andersen et al., 2012) with minor modifications encompassing coupling to 5 different fluorochromes. Finally, multimeric analyses were performed by staining the cells with Live/dead near IR dye (Invitrogen, Karlsruhe, Germany), CD8-FITC antibody clone SK1 (BD, Heidelberg, Germany) and fluorescent pMHC multimers. For analysis, a BD LSRII SORP cytometer equipped with appropriate lasers and filters was used. Peptide specific cells were calculated as percentage of total CD8+ cells. Evaluation of multimeric analysis was done using the FlowJo software (Tree Star, Oreg., USA). In vitro priming of specific multimer+CD8+ lymphocytes was detected by comparing to negative control stimulations.

HLA-A*24 = experiment: MHC binding assay (UV-ligand exchange, beta2m ELISA), HLA-A*24; parameters: species or system human; settings: peptide exchange yield, binding to HLA-A*24, UV-ligand exchange, β2m ELISA
Source text: as §1, §2

| Substance | Peptide exchange (HLA-A*02) | also measured |
| --- | --- | --- |
| 1 (LLYPEPWSV; listed as Homo sapiens) [compound 1] | ++++ (>=75% = ++++) | – |
| 3 (KLEENGDLYL; listed as Homo sapiens) [compound 3] | ++++ (>=75% = ++++) | – |
| 4 (KLMPGTYTL; listed as Homo sapiens) [compound 4] | ++++ (>=75% = ++++) | Wells positive [%] (CD8+ T cells): + (<20% = +) |
| 12 (GLLPLLHRA; listed as Homo sapiens) [compound 12] | ++++ (>=75% = ++++) | Wells positive [%] (CD8+ T cells): ++++ (>=70% = ++++) |
| 14 (ILAKDLFEI; listed as Homo sapiens) [compound 14] | ++++ (>=75% = ++++) | – |
| 16 (YTLDIPVLFGV; listed as Homo sapiens) [compound 16] | ++++ (>=75% = ++++) | – |
| 34 (FLLATEVVTV; listed as Homo sapiens) [compound 34] | ++++ (>=75% = ++++) | – |
| 42 (LLDSVSRL; listed as Homo sapiens) [compound 42] | + (<20% = +) | – |
| 51 (LLFSRLCGA; listed as Homo sapiens) [compound 51] | ++++ (>=75% = ++++) | – |
| 82 (FIFDEAEKL; listed as Homo sapiens) [compound 82] | + (<20% = +) | – |
| 84 (ALCPRIHEV; listed as Homo sapiens) [compound 84] | ++++ (>=75% = ++++) | – |
| 92 (GLLFSLRSV; listed as Homo sapiens) [compound 92] | ++++ (>=75% = ++++) | – |
| 95 (GLLGSLFFL; listed as Homo sapiens) [compound 95] | ++++ (>=75% = ++++) | – |
| 100 (ALLGMIIVGV; listed as Homo sapiens) [compound 100] | + (<20% = +) | – |
| 112 (SLGKFTFDV; listed as Homo sapiens) [compound 112] | ++++ (>=75% = ++++) | – |
| 158 (HYSQELSLLYL; listed as Homo sapiens) [compound 158] | – | Wells positive [%] (CD8+ T cells): + (<20% = +); Peptide exchange (HLA-A*24): ++++ (>=75% = ++++) |
| 159 (LYNKGFIYL; listed as Homo sapiens) [compound 159] | – | Wells positive [%] (CD8+ T cells): ++++ (>=70% = ++++); Peptide exchange (HLA-A*24): ++++ (>=75% = ++++) |
| 163 (DYLKGLASF; listed as Homo sapiens) [compound 163] | – | Wells positive [%] (CD8+ T cells): + (<20% = +); Peptide exchange (HLA-A*24): ++++ (>=75% = ++++) |
| 165 (DYTTWTALL; listed as Homo sapiens) [compound 165] | – | Wells positive [%] (CD8+ T cells): + (<20% = +); Peptide exchange (HLA-A*24): ++++ (>=75% = ++++) |
| 167 (NYINRILKL; listed as Homo sapiens) [compound 167] | – | Wells positive [%] (CD8+ T cells): + (<20% = +); Peptide exchange (HLA-A*24): ++++ (>=75% = ++++) |
| 204 (TYELRYFQI; listed as Homo sapiens) [compound 204] | – | Wells positive [%] (CD8+ T cells): + (<20% = +); Peptide exchange (HLA-A*24): ++++ (>=75% = ++++) |
| 291 (KLDETGNSL; listed as Homo sapiens) [compound 291] | – | Wells (in vitro immunogenicity) (CD8+ T cells): + (<20% = +) |
| 292 (GMMTAILGV; listed as Homo sapiens) [compound 292] | – | Wells (in vitro immunogenicity) (CD8+ T cells): + (<20% = +) |
| 293 (FLVDGSWSI; listed as Homo sapiens) [compound 293] | – | Wells (in vitro immunogenicity) (CD8+ T cells): + (<20% = +) |
| 295 (YYPGVILGF; listed as Homo sapiens) [compound 295] | – | Wells (in vitro immunogenicity) (CD8+ T cells): ++ (20%-49% = ++) |
| 296 (TYVDSSHTI; listed as Homo sapiens) [compound 296] | – | Wells (in vitro immunogenicity) (CD8+ T cells): + (<20% = +) |
| 297 (PFLQASPHF; listed as Homo sapiens) [compound 297] | – | Wells (in vitro immunogenicity) (CD8+ T cells): ++ (20%-49% = ++) |
| 298 (RYLEGTSCI; listed as Homo sapiens) [compound 298] | – | Wells (in vitro immunogenicity) (CD8+ T cells): + (<20% = +) |
| 300 (AYVLRLETL; listed as Homo sapiens) [compound 300] | – | Wells (in vitro immunogenicity) (CD8+ T cells): + (<20% = +) |
| 301 (AYKPGALTF; listed as Homo sapiens) [compound 301] | – | Wells (in vitro immunogenicity) (CD8+ T cells): + (<20% = +) |

Now from value to substance, other results behind:

| Peptide exchange (HLA-A*02) | Substance | also measured |
| --- | --- | --- |
| + (<20% = +) | 120 (VTPVTVSAV; listed as Homo sapiens) [compound 120] | – |
| ++++ (>=75% = ++++) | 125 (SLADYEHFV; listed as Homo sapiens) [compound 125] | – |
| ++++ (>=75% = ++++) | 126 (QMFQYFITV; listed as Homo sapiens) [compound 126] | – |
| ++++ (>=75% = ++++) | 129 (RLQDILWFL; listed as Homo sapiens) [compound 129] | – |
| ++++ (>=75% = ++++) | 133 (ALLPRLHQL; listed as Homo sapiens) [compound 133] | – |
| ++++ (>=75% = ++++) | 147 (YLMDDTVEI; listed as Homo sapiens) [compound 147] | – |
| ++++ (>=75% = ++++) | 153 (FISERVEVV; listed as Homo sapiens) [compound 153] | – |
| ++++ (>=75% = ++++) | 229 (AILAHLNTV; listed as Homo sapiens) [compound 229] | – |
| ++++ (>=75% = ++++) | 245 (SLLDLPLSL; listed as Homo sapiens) [compound 245] | – |
| ++++ (>=75% = ++++) | 248 (YLDRFLAGV; listed as Homo sapiens) [compound 248] | – |
| ++++ (>=75% = ++++) | 249 (GLCERLVSL; listed as Homo sapiens) [compound 249] | Wells positive [%] (CD8+ T cells): + (<20% = +) |
| ++++ (>=75% = ++++) | 257 (GLYTDPCGV; listed as Homo sapiens) [compound 257] | – |
| ++++ (>=75% = ++++) | 258 (LLSERFINV; listed as Homo sapiens) [compound 258] | – |
